Test results from patent US20070071744A1 (published 2007).
Ends that are not written are not given here.

Legend:
Assay in all cases: PepSpot peptide array
[1] = target: T1, peptide 15 (human)
T1 construct: also called SLQALPSSLVPLE
T1 peptide: Ac-SLQALPSSLVPLE
Description: (§1) The peptides were synthesized on a cellulose membrane in a stepwise manner resulting in a defined arrangement (peptide array) and are covalently bound to the cellulose membrane. Binding assays were performed directly on the peptide array. In general an antigen peptide array is incubated with blocking buffer for several hours to reduce non-specific binding of proteins or antibodies. It follows the incubation with a primary (antigen peptide-binding) antibody in blocking buffer and an incubation with a horseradish peroxidase (HRP)-labelled secondary antibody, which binds selectively the primary antibody. Alternatively a HRP-labelled primary antibody in blocking buffer can be used.
(§2) A short T(Tween)-TBS-buffer washing directly after the incubation of the antigen peptide array with the secondary protein or antibody or the HRP-labelled primary antibody followed by the first chemiluminescence experiment is made to get an first overview which antigen peptides do bind the primary antibody. Several buffer washing steps follow (T-TBS- and TBS-buffer) to reduce false positive binding (unspecific antibody binding to the cellulose membrane itself). After these washing steps the final chemiluminescence analysis is performed. The data were analysed with an imaging system showing the signal intensity (Light units, LU) as single measurements for each peptide. In order to evaluate non-specific binding of secondary antibodies, incubations using the secondary antibody have to be performed in the absence of the primary antibody as control incubation.

[2] = target: T2, peptide 105 (human)
T2 peptide: Ac-PSRLPTEPPSSVA
Description: as §1, §2

[3] = target: T3, peptide 23 (human)
T3 peptide: Ac-TLRCQGPPGVDLY
Description: as §1, §2

[4] = target: T4, peptide 92 (human)
T4 peptide: Ac-FSSRDPYLWSAPS
Description: as §1, §2

[5] = target: T5, peptide 2 (human, cysteine pairing not given here)
T5 peptide: Ac-PSPTALFCLGLCL
Description: as §1, §2

[6] = target: T6, peptide 114 (human)
T6 peptide: Ac-TAELTVSFTNKVF
Description: as §1, §2

[7] = target: T7, peptide 94 (human)
T7 construct: also called DPYLWSAPSDPLE
T7 peptide: Ac-DPYLWSAPSDPLE
Description: as §1, §2

[8] = target: T8, peptide 86 (human)
T8 peptide: Ac-TAAHSGTYRCYSF
Description: as §1, §2

[9] = target: T9, peptide 50 (human)
T9 peptide: Ac-PSDQLELVATGVF
Description: as §1, §2

[10] = target: T10, peptide 47 (human)
T10 peptide: Ac-GSLWSLPSDQLEL
Description: as §1, §2

[11] = target: T11, peptide 22 (human)
T11 peptide: Ac-PVTLRCQGPPGVD
Description: as §1, §2

[12] = target: T12, peptide 35 (human)
T12 peptide: Ac-DQAVLFIPAMKRS
Description: as §1, §2

[13] = target: T13, peptide 125 (human)
T13 peptide: Ac-TSPKESDSPAGPA
Description: as §1, §2

[14] = target: T14, peptide 97 (human)
T14 peptide: Ac-APSDPLELVVTGT
Description: as §1, §2

[15] = target: T15, peptide 17 (human)
T15 peptide: Ac-LPSSLVPLEKPVT
Description: as §1, §2

[16] = target: T16, peptide 75 (human)
T16 peptide: Ac-GDPAPYKNPERWY
Description: as §1, §2

[17] = target: T17, peptide 128 (human)
T17 peptide: Ac-DSPAGPARQYYTK
Description: as §1, §2

[18] = target: T18, peptide 63 (human)
T18 peptide: Ac-SSGGDVTLQCQTR
Description: as §1, §2

[19] = target: T19, peptide 110 (human)
T19 peptide: Ac-SVAEFSEATAELT
Description: as §1, §2

[20] = target: T20, peptide 70 (human)
T20 peptide: Ac-GFDQFALYKEGDP
Description: as §1, §2

[21] = target: T21, peptide 73 (human)
T21 peptide: Ac-LYKEGDPAPYKNP
Description: as §1, §2

[22] = target: T22, peptide 6 (human)
T22 peptide: Ac-LGLCLGRVPAQSG
Description: as §1, §2

[23] = target: T23, peptide 81 (human)
T23 peptide: Ac-YRASFPIITVTAA
Description: as §1, §2

[24] = target: T24, peptide 113 (human)
T24 peptide: Ac-EATAELTVSFTNK
Description: as §1, §2

[25] = target: T25, peptide 67 (human)
T25 construct: also called QCQTRYGFDQFAL
T25 peptide: Ac-QCQTRYGFDQFAL
Description: as §1, §2

[26] = target: T26, peptide 119 (human)
T26 peptide: Ac-KVFTTETSRSITT
Description: as §1, §2

[27] = target: T27, peptide 124 (human)
T27 peptide: Ac-ITTSPKESDSPAG
Description: as §1, §2

[28] = target: T28, peptide 123 (human)
T28 peptide: Ac-RSITTSPKESDSP
Description: as §1, §2

[29] = target: T29, peptide 106 (human)
T29 peptide: Ac-RLPTEPPSSVAEF
Description: as §1, §2

[30] = target: T30, peptide 103 (human)
T30 peptide: Ac-TSVTPSRLPTEPP
Description: as §1, §2

[31] = target: T31, peptide 122 (human)
T31 peptide: Ac-TSRSITTSPKESD
Description: as §1, §2

[32] = target: T32, peptide 42 (human)
T32 peptide: Ac-AGRYRCSYQNGSL
Description: as §1, §2

[33] = target: T33, peptide 76 (human)
T33 peptide: Ac-PAPYKNPERWYRA
Description: as §1, §2

[34] = target: T34, peptide 115 (human)
T34 peptide: Ac-ELTVSFTNKVFTT
Description: as §1, §2

[35] = target: T35, peptide 129 (human)
T35 peptide: Ac-PAGPARQYYTKGN
Description: as §1, §2

[36] = target: T36, peptide 49 (human)
T36 peptide: Ac-SLPSDQLELVATG
Description: as §1, §2

[37] = target: T37, peptide 108 (human)
T37 peptide: Ac-EPPSSVAEFSEAT
Description: as §1, §2

[38] = target: T38, peptide 83 (human)
T38 peptide: Ac-FPIITVTAAHSGT
Description: as §1, §2

[39] = target: T39, peptide 14 (human)
T39 peptide: Ac-KPSLQALPSSLVP
Description: as §1, §2

[40] = target: T40, peptide 131 (human)
T40 peptide: Ac-ARQYYTKGNGGRE
Description: as §1, §2

[41] = target: T41, peptide 58 (human)
T41 peptide: Ac-SLSAQPGPAVSSG
Description: as §1, §2

LU (Light Units) [1]: 74 LU | LU (Light Units) [2]: 33 LU | LU (Light Units) [3]: 76 LU | LU (Light Units) [4]: 110 LU | LU (Light Units) [5]: 79 LU | LU (Light Units) [6]: 226 LU | LU (Light Units) [7]: 63 LU | LU (Light Units) [8]: 58 LU | LU (Light Units) [9]: 38 LU | LU (Light Units) [10]: 79 LU | LU (Light Units) [11]: 76 LU | LU (Light Units) [12]: 186 LU | LU (Light Units) [13]: 25 LU | LU (Light Units) [14]: 147 LU | LU (Light Units) [15]: 160 LU | LU (Light Units) [16]: 95 LU | LU (Light Units) [17]: 66 LU | LU (Light Units) [18]: 2 LU | LU (Light Units) [19]: 71 LU | LU (Light Units) [20]: 3 LU | LU (Light Units) [21]: 33 LU | LU (Light Units) [22]: 91 LU | LU (Light Units) [23]: 141 LU | LU (Light Units) [24]: 135 LU | LU (Light Units) [25]: 62 LU | LU (Light Units) [26]: 287 LU | LU (Light Units) [27]: 66 LU | LU (Light Units) [28]: 91 LU | LU (Light Units) [29]: 2 LU | LU (Light Units) [30]: 50 LU | LU (Light Units) [31]: 195 LU | LU (Light Units) [32]: 41 LU | LU (Light Units) [33]: 78 LU | LU (Light Units) [34]: 143 LU | LU (Light Units) [35]: 139 LU | LU (Light Units) [36]: 91 LU | LU (Light Units) [37]: 12 LU | LU (Light Units) [38]: 75 LU | LU (Light Units) [39]: 1420 LU | LU (Light Units) [40]: 289 LU | LU (Light Units) [41]: 110 LU
B1: monoclonal antibody hGP 5C4 (antibody, V domains shown)
VH: EVKLQESGGGLVQPGRSLKLSCTASGFTFSDYFMSWVRQAPTRGLEWVASISSGGASAYWRDSVKGRFTISRDNAKSALYLQMDSLRSEDTATYFCARGELDFDYWGQGVMVAVSS
VL: ADPNSTLLSASVGDRVTLNCTASQNVYKNLAWYQQKLGEAPRLLLYSANSQTGIPSRFSGSGSGPDFTLTISSLQPEDVASYFCQQYYSGNTFGAGTKLELKR
notes: Rat hybridoma antibody (Lou/C rats), heavy chain gamma 2a, light chain kappa; also called ab 5C4; anti-GPVI mAb 5C4
